# Measurements: the RNAGym collection of RNA variant scans (doi:10.1101/gr.219683.116)
# B1: mRNA-splicing (parent)
# chain: AGUUGCUGCUGGGAGCUCCAGCACAGUGAAAUGGACAGAAGGGCAGAGCAA
# Variants of: B1
# Test: exon inclusion enrichment index; higher = more inclusion; WT1 exon 5 minigene, HEK293
row,Variant,exon inclusion enrichment index
1,G5A C6U U7A G8U C9A G43C C44A,0.403
2,G5A C6U U7A G8U C9A G43C C44U,0.033
3,G5A C6U U7A G8U C9A G43C C44G,1.01
4,G5A C6U U7A G8U C9A U32A G33C,0.0967
5,G5A C6U U7A G8U C9A U32A G33A,0.00941
6,G5A C6U U7A G8U C9A U32A G33U,0.0199
7,G5A C6U U7A G8U C9A C24A A25U,0.0699
8,G5A C6U U7A G8U C9A C24A A25G,0.0412
9,G5A C6U U7A G8U C9A C24A A25C,0.405
10,G5A U7C C9A,2.07
11,G5A C6U U7A G8U C9A U17A C18U,0.0116
12,G5A C6U U7A G8U C9A U17A C18G,0.0258
13,G5A C6U U7A G8U C9A U17A C18A,0.0198
14,G5A C6U U7A G8U C9A G43U C44G,0.073
15,G5A C6U U7A G8U C9A G43U C44U,0.00909
16,G5A C6U U7A G8U C9A G43U C44A,0.00905
17,G5A U7A C9A U10A,0.318
18,G5A C6U U7C G8A C9A,0.442
19,G5A C6U U7G G8U C9A,0.144
20,G5A C6U U7A G8U C9A G46A A47C,0.232
21,G5A C6U U7A G8U C9A G46A A47U,0.0808
22,G5A C6U U7A G8U C9A G46A A47G,0.0237
23,G5A C6U U7A G8U C9A G42A,0.446
24,G5A C6U U7A G8U C9A G42C,0.399

row,Variant,exon inclusion enrichment index
1,G5A C6U U7A G8U C9A G42U,0.107
2,G5A C6U U7A G8U C9A C44A,0.286
3,G5A C6U U7A G8U C9A C44G,0.115
4,G5A C6U U7A G8U C9A C44U,0.00684
5,G5A G8A U10C,1.77
6,G5A C6U U7A G8U C9A U10G G11C,0.022
7,G5A C6U U7A G8U C9A U10G G11A,0.0194
8,G5A C6U U7A G8U C9A U10G G11U,0.014
9,G5A C6U U7A G8U C9A C24G A25G,0.0168
10,G5A C6U U7A G8U C9A C24G A25U,0.0695
11,G5A C6U U7A G8U C9A C24G A25C,0.392
12,G5A C6U U7A G8U C9A U10A G11U,0.0948
13,G5A C6U U7A G8U C9A U10A G11C,0.176
14,G5A C6U U7A G8U C9A U10A G11A,0.0538
15,G5A C6U U7A G8U C9A G13U,0.00122
16,G5A C6U U7A G8U C9A G13C,0.0162
17,G5A C6U U7A G8U C9A G13A,0.144
18,G5A C6U U7A G8U C9A U27G G28C,0.0308
19,G5A C6U U7A G8U C9A U27G G28A,0.12
20,G5A C6U U7A G8U C9A U27G G28U,0.00125
21,G5A C6U U7A G8U C9A U32G,0.0013
22,G5A C6U U7A G8U C9A U32C,0.14
23,G5A C6U U7A G8U C9A U32A,0.0571
24,G5A C6U U7C C9A U10C,2.91

row,Variant,exon inclusion enrichment index
1,G5A C6U U7A G8U C9A G38C A39U,0.0021
2,G5A C6U U7A G8U C9A G38C A39C,0.105
3,G5A C6U U7A G8U C9A G38C A39G,0.115
4,G5A C6U U7A G8U C9A G12C,0.0374
5,G5A C6U U7A G8U C9A G12U,0.0278
6,G5A C6U U7A G8U C9A G12A,0.0361
7,G5A C6U U7A G8U C9A G12A G13A,0.027
8,G5A C6U U7A G8U C9A G12A G13U,0.000604
9,G5A C6U U7A G8U C9A G12A G13C,0.0112
10,G5A C6U U7C G8A U10A,0.0761
11,G5A C6U U7C G8A U10C,2.02
12,G5A C6U U7A G8U C9A G41C,0.435
13,G5A C6U U7A G8U C9A G41A,0.0374
14,G5A C6U U7A G8U C9A G41U,0.077
15,G5A C6U U7A G8U C9A G28A A29U,0.00845
16,G5A C6U U7A G8U C9A G28A A29C,0.0311
17,G5A C6U U7A G8U C9A G28A A29G,0.00353
18,G5A C6U U7A G8U C9G,0.0579
19,G5A C6U U7A G8U C9U,0.0721
20,G5A C6U U7A G8U C9A G26A,0.141
21,G5A C6U U7A G8U C9A G26U,0.0898
22,G5A C6U U7A G8U C9A G26C,0.142
23,G5A C6U U7A G8U C9A G34A A35U,0.00832
24,G5A C6U U7A G8U C9A G34A A35G,0.00212

row,Variant,exon inclusion enrichment index
1,G5A C6U U7A G8U C9A G34A A35C,0.0538
2,G5A C6U U7A G8U C9A C36U A37U,0.0384
3,G5A C6U U7A G8U C9A C36U A37C,0.0296
4,G5A C6U U7A G8U C9A C36U A37G,0.0518
5,G5A C6U U7A G8U C9A G21U C22A,0.0356
6,G5A C6U U7A G8U C9A G21U C22U,0.00572
7,G5A C6U U7A G8U C9A G21U C22G,0.0561
8,G5A C6U U7A G8U C9A G26C U27G,0.442
9,G5A C6U U7A G8U C9A G26C U27C,0.489
10,G5A C6U U7A G8U C9A G26C U27A,0.0751
11,G5A C6U U7A G8U C9A G43A,0.454
12,G5A C6U U7A G8U C9A G43U,0.0904
13,G5A C6U U7A G8U C9A G43C,0.15
14,G5A C6U U7A G8U C9A G13U A14C,0.0467
15,G5A C6U U7A G8U C9A G13U A14G,0.00922
16,G5A C6U U7A G8U C9A G13U A14U,0.0119
17,G5A C6U U7A G8U C9A G28C A29G,0.178
18,G5A C6U U7A G8U C9A G28C A29C,0.0748
19,G5A C6U U7A G8U C9A G28C A29U,0.0282
20,G5A C6U U7A G8U C9A C36G A37C,0.0098
21,G5A C6U U7A G8U C9A C36G A37U,0.0196
22,G5A C6U U7A G8U C9A C36G A37G,0.00777
23,G5A C6U U7A G8U C9U U10C,0.453
24,G5A C6U U7A G8U C9U U10G,0.0345

row,Variant,exon inclusion enrichment index
1,G5A C6U U7A G8U C9U U10A,0.00135
2,G5A U7A G8U C9A,0.262
3,G5A C6U U7A G8U C9A G34C A35G,0.0452
4,G5A C6U U7A G8U C9A G34C A35C,0.00243
5,G5A C6U U7A G8U C9A G34C A35U,0.0109
6,G5A C6U U7G G8A U10C,1.97
7,G5A C6U U7A G8U C9A G33U G34U,0.0031
8,G5A C6U U7A G8U C9A G33U G34C,0.00527
9,G5A C6U U7A G8U C9A G33U G34A,0.0131
10,G5A U7C G8A U10C A14G,1.38
11,G5A U7C G8A U10C A14C,1.69
12,G5A U7C G8A C9A,0.923
13,G5A U7C G8A C9G,0.872
14,G5A U7C G8A C9U,0.959
15,G5A C6U U7A G8U C9A U32G G33U,0.0122
16,G5A C6U U7A G8U C9A U32G G33C,0.0522
17,G5A C6U U7A G8U C9A U32G G33A,0.00894
18,G5A C6U U7A G8U C9A G28A,0.0134
19,G5A C6U U7A G8U C9A G28U,0.0124
20,G5A C6U U7A G8U C9A G28C,0.0466
21,G5A U7A G8C U10C,1.42
22,G5A C9A,0.851
23,G5A C6U U7A G8U C9A G28U A29G,0.0696
24,G5A C6U U7A G8U C9A G28U A29C,0.0467

row,Variant,exon inclusion enrichment index
1,G5A C6U U7A G8U C9A G28U A29U,0.00744
2,G5A C6U U7A G8U C9A U10C,0.4
3,G5A C6U U7A G8U C9A U10A,0.0162
4,G5A C6U U7A G8U C9A U10G,0.00356
5,G5A C6U U7A G8U C9A G11A,0.00945
6,G5A C6U U7A G8U C9A G11C,0.191
7,G5A C6U U7A G8U C9A G11U,0.0798
8,G5A C6U U7G G8C C9A,0.407
9,G5A U7C G8A U10C A14C G15A,0.731
10,G5A U7C G8A U10C A14C G15U,1
11,G5A U7C G8A U10C A14C G15C,0.761
12,G5A C6U U7A G8U C9A G48A,0.185
13,G5A C6U U7A G8U C9A G48C,0.13
14,G5A C6U U7A G8U C9A G48U,0.114
15,G5A G8U C9A,0.187
16,G5A G8U C9U,0.166
17,G5A C6U U7A G8U C9A G15A C16A,0.0139
18,G5A C6U U7A G8U C9A G15A C16G,0.0191
19,G5A C6U U7A G8U C9A G15A C16U,0.0138
20,G5A C6U U7A G8U C9A G43A C44U,0.072
21,G5A C6U U7A G8U C9A G43A C44G,0.476
22,G5A C6U U7A G8U C9A G43A C44A,0.441
23,G5A U7C G8A C9A U10A,0.384
24,G5A U7C G8A C9A U10C,2

row,Variant,exon inclusion enrichment index
1,G5A U7C G8A C9A U10G,0.509
2,G5A C6U U7A G8U C9A G33A G34A,0.0009
3,G5A C6U U7A G8U C9A G33A G34C,0.0195
4,G5A C6U U7A G8U C9A G33A G34U,0.0125
5,G5A C6U U7A G8U C9A G33C G34U,0.0325
6,G5A C6U U7A G8U C9A G33C G34C,0.043
7,G5A C6U U7A G8U C9A G33C G34A,0.0386
8,G5A C6U U7A G8U C9A U10C G11U,0.148
9,G5A C6U U7A G8U C9A U10C G11A,0.0351
10,G5A C6U U7A G8U C9A U10C G11C,0.845
11,G5A C6U U7A G8U C9A G38A A39U,0.00385
12,G5A C6U U7A G8U C9A G38A A39C,0.0573
13,G5A C6U U7A G8U C9A G38A A39G,0.0704
14,G5A U7C C9U U10C,2.63
15,G5A C6U U7A G8U C9A C22U,0.0424
16,G5A C6U U7A G8U C9A C22G,0.0616
17,G5A C6U U7A G8U C9A G15U C16G,0.0108
18,G5A C6U U7A G8U C9A G15U C16U,0.00626
19,G5A C6U U7A G8U C9A G15U C16A,0.0179
20,G5A U7A U10C,1.84
21,G5A C6U U7A G8U C9A C36A A37U,0.0158
22,G5A C6U U7A G8U C9A C36A A37C,0.0847
23,G5A C6U U7A G8U C9A C36A A37G,0.0248
